pKd: −log10 of the molar value.
What was measured:
[1] = target: HER2 on MDA-MB-453 cells (Homo sapiens) (UniProt P04626); test: cell binding, NIR fluorescence; settings: live cells, 5% FBS, 1 h, live adherent cells (1e4/well), 0.01-10 uM 5'-IRD800 aptamer in growth medium with 5% FBS, 37 C (or 4 C), buffer salt and pH not stated
[2] = target: HER2 on SK-BR-3 cells (Homo sapiens) (UniProt P04626); test: cell binding, NIR fluorescence; settings: live cells, 5% FBS, 1 h, live adherent cells (1e4/well), 0.01-10 uM 5'-IRD800 aptamer in growth medium with 5% FBS, 37 C (or 4 C), buffer salt and pH not stated

“CCGCCCAAACACACGTAAACAGATGAGGAGCCGACACTGGG [HMAP7 (M7)]” showed a pKd [1] of 6.59 and a pKd [2] of 6.46.
